Experimental data from patent publication US20090029924A1.

These binders were tested against Recombinant human furin (human), P09958 (assay: furin, Pyr-RTKR-AMC cleavage).
Sequence of Recombinant human furin (human), P09958 (P09958 108-714 limits assumed): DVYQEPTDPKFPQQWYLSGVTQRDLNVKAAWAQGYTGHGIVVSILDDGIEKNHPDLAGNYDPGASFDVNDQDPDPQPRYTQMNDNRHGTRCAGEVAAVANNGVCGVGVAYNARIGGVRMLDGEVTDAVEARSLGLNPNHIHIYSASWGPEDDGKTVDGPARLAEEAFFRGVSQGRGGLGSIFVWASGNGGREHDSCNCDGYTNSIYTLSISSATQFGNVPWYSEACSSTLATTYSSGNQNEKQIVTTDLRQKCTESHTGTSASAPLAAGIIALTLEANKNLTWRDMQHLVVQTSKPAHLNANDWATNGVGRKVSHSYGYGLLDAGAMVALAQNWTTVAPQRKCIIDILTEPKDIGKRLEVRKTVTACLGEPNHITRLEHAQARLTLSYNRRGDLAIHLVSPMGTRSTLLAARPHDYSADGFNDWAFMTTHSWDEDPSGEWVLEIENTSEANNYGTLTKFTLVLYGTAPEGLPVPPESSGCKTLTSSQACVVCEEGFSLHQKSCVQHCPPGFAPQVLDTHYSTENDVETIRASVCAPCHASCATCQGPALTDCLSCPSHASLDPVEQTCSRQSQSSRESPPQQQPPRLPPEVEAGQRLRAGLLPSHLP
For RRKKRT (modifications not checked), the Ki was 32.5 nM. Work on RRRKKRT (modifications not checked) yielded a Ki of 17.6 nM. With RKKRT (modifications not checked) the Ki was 1000 nM. Binder TPRERRRKAAV (modifications not checked) […] has a Ki of over 100 nM.
